Assay results as given in patent publication US20240337665A1 (INDI MOLECULAR, published 2024).
Bridge positions count the residues as written; N and C are the ends. Square brackets hold non-standard residues; d marks the D form. Ends that are not written are not given here. I, II: the chains in the order shown. Lys(N3) = [N-]=[N+]=NCCCC[C@H](N)C(=O)O; Pra = C#CC[C@H](N)C(=O)O

Experiments:
[1] = target: T1, Plasmodium falciparum Histidine Rich Protein-2 (Plasmodium falciparum); assay: assay not described; monoligand Cy(YKYYR)
T1 construct: the construct used in the assay is not described; also called Pf.HRP-2
T1 chain: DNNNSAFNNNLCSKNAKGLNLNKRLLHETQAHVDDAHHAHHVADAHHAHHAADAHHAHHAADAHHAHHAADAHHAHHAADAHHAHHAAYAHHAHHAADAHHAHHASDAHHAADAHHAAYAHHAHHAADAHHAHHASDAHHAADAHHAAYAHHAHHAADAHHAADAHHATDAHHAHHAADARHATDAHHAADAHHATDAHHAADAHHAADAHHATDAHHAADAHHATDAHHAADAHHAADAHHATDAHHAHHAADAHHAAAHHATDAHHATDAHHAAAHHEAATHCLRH

[2] = target: T1, Plasmodium falciparum Histidine Rich …; assay: assay not described
[3] = target: T1, Plasmodium falciparum Histidine Rich …; assay: assay not described; biligand cy(YKYYR)-linker-cy(GWNVDL)
[4] = target: T2, Full-length His-tagged IL-17F protein (ab167911, Abcam) (human, UniProt Q96PD4 31-163); assay: binding to His-tagged IL-17F human recombinant protein (ELISA format); reference: the individual PCC macrocycles Cy(RRATSX1X2) and Cy(RSYNKX1X2)
T2 construct: Bought protein, called full-length and His-tagged; also called human IL-17F protein; recombinant human IL-17F protein; not shown: His tag
T2 sequence: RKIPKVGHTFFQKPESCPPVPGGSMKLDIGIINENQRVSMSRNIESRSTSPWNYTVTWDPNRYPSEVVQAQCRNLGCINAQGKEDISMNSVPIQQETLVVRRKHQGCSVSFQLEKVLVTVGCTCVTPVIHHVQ

[5] = target: T2, Full-length His-tagged IL-17F protein …; assay: point ELISA; recombinant human IL-17F against IL-17A
[6] = target: T2, Full-length His-tagged IL-17F protein …; assay: binding to His-tagged IL-17F human recombinant protein
[7] = target: T2, Full-length His-tagged IL-17F protein …; assay: fluorescence polarization in solution; in solution by fluorescence polarization
[8] = target: T2, Full-length His-tagged IL-17F protein …; assay: binding to His-tagged IL-17F human recombinant protein (ELISA format); PEG3-linked biligand; binding to His-tagged IL-17F, not in solution
[9] = target: T2, Full-length His-tagged IL-17F protein …; assay: sandwich ELISA; biotinylated macrocycle on NeutrAvidin plate, His-tagged IL-17F titrated
[10] = target: T2, Full-length His-tagged IL-17F protein …; assay: point ELISA; macrocycle on NeutrAvidin plate, His-tagged IL-17F against His-tagged IL-17A at 100 nM
[11] = target: T1, Plasmodium falciparum Histidine Rich …; assay: assay not described; two Cy(YKYYR) PCCs joined by about a 1.5 nm linker
[12] = target: T2, Full-length His-tagged IL-17F protein …; assay: point ELISA; surface-immobilized macrocycle with IL-17F, IL-17A or no protein
[13] = target: T2, Full-length His-tagged IL-17F protein …; assay: sandwich ELISA; biotinylated macrocycle on NeutrAvidin plate, His-tagged IL-17F titrated, anti-His-AP detection
[14] = target: T2, Full-length His-tagged IL-17F protein …; assay: point ELISA; macrocycle on NeutrAvidin plate, His-tagged IL-17F against His-tagged IL-17A
[15] = target: T3, His6-PEG3-SQFEKFPSPPVPGGS (not fully specified (N-terminus); printed as His6-PEG3-SQFEKFPSPPVPGGS); assay: point ELISA; macrocycle on NeutrAvidin plate, His-tagged epitope, anti-His-AP detection
T3 construct: Synthetic; residues N-terminal to C48S scrambled
T3 peptide: SQFEKFPSPPVPGGS

[16] = target: T2, Full-length His-tagged IL-17F protein …; assay: fluorescence polarization in solution; IL-17F titrated against 5-FITC-tagged macrocycle; 5-FITC-tagged LF1, fluorescence polarization in solution
[17] = target: T4, His6-PEG3-FFQKPESSPPVPGGS (human, not fully specified (N-terminus); printed as His6-PEG3-FFQKPESSPPVPGGS); assay: point ELISA; macrocycle on NeutrAvidin plate, 2 µM His-tagged epitope
T4 construct: Not clear whether the listing entry holds the His6
T4 peptide: FFQKPESSPPVPGGS

[18] = target: T5, His6-PEG3-FFQKPESSPVSPGPG (not fully specified (N-terminus); printed as His6-PEG3-FFQKPESSPVSPGPG); assay: as above
T5 construct: Synthetic; residues C-terminal to C48S scrambled
T5 peptide: FFQKPESSPVSPGPG

[19] = target: T1, Plasmodium falciparum Histidine Rich …; assay: assay not described; monoligand cy(GWNVDL)
[20] = target: T2, Full-length His-tagged IL-17F protein …; assay: fluorescence polarization in solution; IL-17F titrated against 5-FITC-tagged macrocycle; 5-FITC-tagged LF2, fluorescence polarization in solution
[21] = target: T2, Full-length His-tagged IL-17F protein …; assay: not stated in the sentence (same number as the ELISA EC50 of paragraph 504); monoligand Cy(RSYNKX1X2), not the biligand

YKYYR (also: cyclic, ring type not given here, also called cyclic YKYYR) [Cy(YKYYR)]
EC50 [1]: 220 nM

B1: cy(YKYYR)-linker-cy(GWNVDL) (designed binder)
peptide 1: YKYYR
peptide 2: GWNVDL
modifications: not fully specified (bridges); printed as cy(YKYYR)-linker-cy(GWNVDL)
notes: also called The resultant biligand
fold improvement over the better of the two ligand components [2]: 100 fold | EC50 [3]: 0.54 nM

B2: Biotin-PEG3-Cy(RSYNKX1X2)-PEG3-Cy(RRATSX1X2) (designed binder)
peptide 1: RSYNK[Lys(N3)][Pra]
peptide 2: RRATS[Lys(N3)][Pra]
modifications: triazole I:6-I:7, II:6-II:7; not fully specified (N-terminus, C-terminus); printed as Biotin-PEG3-Cy(RSYNKX1X2)-PEG3-Cy(RRATSX1X2); also: chain 1 joined to chain 2 through one PEG3 linker, backbone orders Pra-RSYNK-Az4 and Pra-RRATS-Az4, no bonds X6-X7
notes: One covalent molecule: two macrocyclic peptides joined by a single PEGylated amino acid (not a peptide linker), written here as two peptide segments; also called Bi-LF; anti-IL-17F biligand with PEG3 linker
fold improvement in affinity relative to the individual PCC macrocyclic ligands [4]: > 100 fold | selectivity for IL-17F over IL-17A [5]: 4 ratio IL-17F:IL-17A | fold better binder than the biligands with other linkers [6]: ~10 fold | times stronger than the other biligands [6]: ≥ 16 fold | Kd [7]: 0.252 nM | Kd [8]: 0.246 nM

B3: Biotin-PEG3-Cy(KKGWPX1X2) (peptide)
peptide: KKGWP[Lys(N3)][Pra]
modifications: triazole 6-7; not fully specified (N-terminus, bridges); printed as Biotin-PEG3-Cy(KKGWPX1X2); also: no peptide bond X6-X7, Pra is the true N-terminus, Az4 the true C-terminus, Biotin-PEG3 label at N-terminus (on Pra)
EC50 [9]: 24 nM | selectivity for IL-17F over IL-17A [10]: 4 ratio IL-17F:IL-17A

B4: linked biligand of two Cy(YKYYR) PCCs (designed binder)
peptide: YKYYR
modifications: not fully specified (bridges)
notes: also called The resultant linked biligand
EC50 [11]: 20.8 nM

B5: Cy(RRATSX1X2)-PEG3-biotin (peptide)
peptide: RRATS[Lys(N3)][Pra]
modifications: triazole 6-7; not fully specified (C-terminus, bridges); printed as Cy(RRATSX1X2)-PEG3-biotin; also: no peptide bond X6-X7, Pra is the true N-terminus, Az4 the true C-terminus, PEG3-biotin label at C-terminus (on Az4)
notes: Biotin-PEG3 form used on NeutrAvidin plates; also called LF1
selectivity for IL-17F over IL-17A [12]: 10 ratio IL-17F:IL-17A | EC50 [13]: 66 nM | selectivity for IL-17F over IL-17A [14]: 2 ratio IL-17F:IL-17A | binding result [15]: no binding (tested: 2 µM epitope) | Kd [16]: 50 nM | binding result [17]: binds | binding result [18]: binds

B6: Cy(RRAQSX1X2)-PEG3-biotin (peptide)
peptide: RRAQS[Lys(N3)][Pra]
modifications: triazole 6-7; not fully specified (C-terminus, bridges); printed as Cy(RRAQSX1X2)-PEG3-biotin; also: no peptide bond X6-X7, Pra is the true N-terminus, Az4 the true C-terminus, PEG3-biotin label at C-terminus (on Az4)
EC50 [13]: 52 nM | selectivity for IL-17F over IL-17A [14]: 2 ratio IL-17F:IL-17A | binding result [15]: no binding (tested: 2 µM epitope) | binding result [17]: binds | binding result [18]: binds

GWNVDL (not fully specified (bridges); also: cyclic, ring closure not given here, also called cy(GWNVDL)) [cyclic PCC with variable sequence GWNVDL]
EC50 [19]: 50 nM

B7: Biotin-PEG3-Cy(RSYNKX1X2) (peptide)
peptide: RSYNK[Lys(N3)][Pra]
modifications: triazole 6-7; not fully specified (N-terminus, bridges); printed as Biotin-PEG3-Cy(RSYNKX1X2); also: no peptide bond X6-X7, Pra is the true N-terminus, Az4 the true C-terminus, Biotin-PEG3 label at N-terminus (on Pra)
notes: also called LF2
EC50 [9]: 15 nM | selectivity for IL-17F over IL-17A [10]: 4 ratio IL-17F:IL-17A | Kd [20]: 28 nM | Kd [21]: 15 nM
